Measurements: patent US20080181886A1, “Polypeptides That Bind Baff And/Or April” (Genentech, Inc., priority 2004, published 2008)

Legend:
[1] = molecular target: human BAFF (UniProt Q9Y275); assay: competitive SPR; elute 1; interaction observed, curve not fitted adequately
[2] = molecular target: human BAFF (UniProt Q9Y275); assay: competitive SPR; elute 2; interaction observed, curve not fitted adequately
[3] = molecular target: TRX-APRIL (mouse) (UniProt Q9D777); assay: competitive SPR; elute 2
[4] = molecular target: TRX-APRIL (mouse) (UniProt Q9D777); assay: competitive SPR; elute 1
[5] = molecular target: human BAFF (UniProt Q9Y275); assay: competitive SPR; elute 2
[6] = molecular target: human BAFF (UniProt Q9Y275); assay: competitive SPR; elute 1

human BAFF, sequence (Q9Y275 82-285): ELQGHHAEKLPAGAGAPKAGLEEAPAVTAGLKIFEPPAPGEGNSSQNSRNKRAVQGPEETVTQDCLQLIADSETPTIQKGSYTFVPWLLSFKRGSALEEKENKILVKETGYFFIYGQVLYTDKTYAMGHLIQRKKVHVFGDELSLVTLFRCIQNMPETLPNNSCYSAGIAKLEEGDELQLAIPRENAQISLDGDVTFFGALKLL
TACI_d1 (first CRD of TACI, residues 32-67), sequence (O14836 32-67): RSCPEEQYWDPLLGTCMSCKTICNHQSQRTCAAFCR
TRX-APRIL (mouse), sequence (Q9D777 104-241): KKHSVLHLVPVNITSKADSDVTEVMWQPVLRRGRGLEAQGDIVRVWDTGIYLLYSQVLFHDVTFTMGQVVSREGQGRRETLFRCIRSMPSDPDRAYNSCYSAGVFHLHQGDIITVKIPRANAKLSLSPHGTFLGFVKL

Row | Substance | IC50 [1] [nM] | IC50 [2] [nM] | IC50 [3] [nM] | IC50 [4] [nM] | IC50 [5] [nM] | IC50 [6] [nM]
1 | TACI_d1 (first CRD of TACI, residues 32-67) | > 100 | > 100 | 1000 | 3000 |  | 
2 | hTACI CRD1 LS (human TACI CRD1 R32-R67 with NHQSQRT replaced by GQHPKQ of CRD2) |  |  | 129 | 12 | 23 | 6
